Results on 62 sequences are retold here after patent US20160177307.

The subject of the series is T1, VEGF-121 (Homo sapiens), P15692-9.
T1 sequence: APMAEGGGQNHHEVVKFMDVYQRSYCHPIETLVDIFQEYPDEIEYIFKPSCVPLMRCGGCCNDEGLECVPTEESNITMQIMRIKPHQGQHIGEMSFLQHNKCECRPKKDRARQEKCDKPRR
Briefly: filter.

In general, Kd refers to the constant that tells how readily two partners part at equilibrium. In the case of “AGCCGTTCAAGTGCTTGTAGGATTTAAATGGA [4867-31_94]”, the Kd (P=Nap-dU, 2'-OMe G30) is 0.21 nM. Consider “AGCCGTTCAAGTGCTTGTAGGATTTAAATGGA [4867-31_95]”, for which, for the setting “P=Nap-dU, 2'-OMe G31”, the Kd worked out at 0.19 nM. In turn, “AGCCGTTCAAGTGCTTGTAGGATTTAAATGGA [4867-31_96]” returned a Kd (P=Nap-dU, 2'-OMe A32) of 0.13 nM. Under “C3 spacer at 17, all P are NapdU, C3 at G17”, “AGCCGTTCAAGTGCTTTAGGATTTAAATGGA [4867-31_98]” returned a Kd of 0.1 nM. Under “P=Nap-dU, C3 spacer at 4”, “CCCCCATCAGCCGTTCAAGTGCTTGTAGGATTTAAATGGAATTGGAGGA [4867-15_27]” registered a Kd of 0.4 nM. Take “CCCTCATCAGCCGTTCAAGTGCTTGTAGGATTTAAATGGAATTGGAGGA [4867-15_28]”: for the setting “P=Nap-dU, C3 spacer at 5”, the Kd came out at 0.34 nM. For “CCCTCATCAGCCGTTCAAGTGCTTGTAGGATTTAAATGGAATTGGAGGA [4867-15_29]”, the Kd (P=Nap-dU, C3 spacer at 6) came to 0.2 nM. In the case of “CCCTCCACAGCCGTTCAAGTGCTTGTAGGATTTAAATGGAATTGGAGGA [4867-15_31]”, the Kd (P=Nap-dU, C3 spacer at 8) was 0.095 nM. The sequence “CCCTCCATAGCCGTTCAAGTGCTTGTAGGATTTAAATGGAATTGGAGGA [4867-15_32]” gave a Kd (P=Nap-dU, C3 spacer at 9) of 0.079 nM. Take “CCCTCCATCACCGTTCAAGTGCTTGTAGGATTTAAATGGAATTGGAGGA [4867-15_34]”: under “P=Nap-dU, C3 spacer at 11”, the equilibrium dissociation constant (Kd) turned out to be 0.14 nM. On to “CCCTCCATCAGCCGTTAAGTGCTTGTAGGATTTAAATGGAATTGGAGGA [4867-15_40]”, for which the Kd (P=Nap-dU, C3 spacer at 17) was found to be 0.17 nM. Take “CCCTCCATCAGCCGTTCAAGTCTTGTAGGATTTAAATGGAATTGGAGGA [4867-15_45]”: the Kd (P=Nap-dU, C3 spacer at 22) was 3.5 nM. “CCCTCCATCAGCCGTTCAAGTGCTTGAGGATTTAAATGGAATTGGAGGA [4867-15_50]” registered a Kd (P=Nap-dU, C3 spacer at 27) of 3.5 nM.

Take “CCCTCCATCAGCCGTTCAAGTGCTTGTAGATTTAAATGGAATTGGAGGA [4867-15_52]”: the Kd (P=Nap-dU, C3 spacer at 29) stood at 0.2 nM. “CCCTCCATCAGCCGTTCAAGTGCTTGTAGATTTAAATGGAATTGGAGGA [4867-15_53]” displayed a Kd (P=Nap-dU, C3 spacer at 30) of 23 nM.

“CCCTCCATCAGCCGTTCAAGTGCTTGTAGGATTTAAATGAATTGGAGGA [4867-15_62]” had a dissociation constant (Kd) (P=Nap-dU, C3 spacer at 39) of 53 nM. Turning to “CCCTCCATCAGCCGTTCAAGTGCTTGTAGGATTTAAATGAATTGGAGGA [4867-15_63]”, the Kd (P=Nap-dU, C3 spacer at 40) was found to be 15 nM. In the case of “CCCTCCATCAGCCGTTCAAGTGCTTGTAGGATTTAAATGGAATGGAGGA [4867-15_66]”, the dissociation constant (Kd) (P=Nap-dU, C3 spacer at 43) came out at 0.11 nM. Where the note is “P=Nap-dU, C3 spacer at 44”, “CCCTCCATCAGCCGTTCAAGTGCTTGTAGGATTTAAATGGAATGGAGGA [4867-15_67]” returned a Kd of 0.15 nM.

Take “CCCTCCATCAGCCGTTCAAGTGCTTGTAGGATTTAAATGGAATTGAGGA [4867-15_68]”: the Kd (P=Nap-dU, C3 spacer at 45) is 0.32 nM. With “CCCTCCATCAGCCGTTCAAGTGCTTGTAGGATTTAAATGGAATTGAGGA [4867-15_69]”, the Kd (P=Nap-dU, C3 spacer at 46) worked out at 0.77 nM. Where the note is “P=Nap-dU, C3 spacer at 48”, “CCCTCCATCAGCCGTTCAAGTGCTTGTAGGATTTAAATGGAATTGGAGA [4867-15_71]” showed a Kd of 0.24 nM.

As for “CCCTCCATCAGCCGTTCAAGTGCTTGTAGGATTTAAATGGAATTGGAGA [4867-15_72]”, the Kd (P=Nap-dU, C3 spacer at 49) is 0.19 nM. As to “CCCTCCATCAGCCGTTCAAGTGCTTGTAGGATTTAAATGGAATTGGAGG [4867-15_73]”, the Kd (P=Nap-dU, C3 spacer at 50) was 0.17 nM. On to “CCCTCCATCAGCCGTTCAAGTGCTTGTAGGATTTAAATGGAATTGGAGGA [4867-31_2 (4867-15_2, 50-mer)]”, for which the Kd (all P are NapdU, rest DNA, 50-mer parent) turned out to be 0.15 nM. For the setting “P=Nap-dU, C3 spacer at 47”, “CCCTCCATCAGCCGTTCAAGTGCTTGTAGGATTTAAATGGAATTGGGGA [4867-15_70]” came in with a Kd of 0.68 nM. Where the note is “P=Nap-dU, C3 spacer at 41”, “CCCTCCATCAGCCGTTCAAGTGCTTGTAGGATTTAAATGGATTGGAGGA [4867-15_64]” yielded a Kd of 0.22 nM.

For the sequence “CCCTCCATCAGCCGTTCAAGTGCTTGTAGGATTTAAATGGATTGGAGGA [4867-15_65]”, the Kd (P=Nap-dU, C3 spacer at 42) amounted to 0.13 nM. Take “CCCTCCATCAGCCGTTCAAGTGCTTGTGGATTTAAATGGAATTGGAGGA [4867-15_51]”: the Kd (P=Nap-dU, C3 spacer at 28) came to 1.6 nM. Sequence “CCCTCCATCAGCCGTTCAAGTGCTTTAGGATTTAAATGGAATTGGAGGA [4867-15-49]” returned a Kd (C3 spacer at 26 as stated in text numbering is nearby G (single V in SEQ:614), all P are NapdU, C3 spacer at G26 tolerated) of 0.079 nM. As for “CCCTCCATCAGCCGTTCAATGCTTGTAGGATTTAAATGGAATTGGAGGA [4867-15_43]”, the Kd (P=Nap-dU, C3 spacer at 20) was 9.2 nM. In turn, “CCCTCCATCAGCCGTTCAGTGCTTGTAGGATTTAAATGGAATTGGAGGA [4867-15_41]” gave a Kd (P=Nap-dU, C3 spacer at 18) of 13 nM. Where the note is “P=Nap-dU, C3 spacer at 19”, “CCCTCCATCAGCCGTTCAGTGCTTGTAGGATTTAAATGGAATTGGAGGA [4867-15_42]” showed a Kd of 31 nM. In the case of “CCCTCCATCAGCCTTCAAGTGCTTGTAGGATTTAAATGGAATTGGAGGA [4867-15_37]”, where the note is “P=Nap-dU, C3 spacer at 14”, the Kd turned out to be 30 nM. As for “CCCTCCATCAGCGTTCAAGTGCTTGTAGGATTTAAATGGAATTGGAGGA [4867-15_35]”, the Kd (P=Nap-dU, C3 spacer at 12) came out at 3.4 nM. “CCCTCCATCGCCGTTCAAGTGCTTGTAGGATTTAAATGGAATTGGAGGA [4867-15_33]”: the Kd (P=Nap-dU, C3 spacer at 10) was 0.12 nM.

Sequence “CCCTCCTCAGCCGTTCAAGTGCTTGTAGGATTTAAATGGAATTGGAGGA [4867-15_30]” displayed a Kd (P=Nap-dU, C3 spacer at 7) of 0.11 nM. For the setting “P=Nap-dU”, “CCGTTAAAGTGCTTGTAGGATTTAAATGGA [4867-31_145]” yielded a Kd of 3.08 nM. Turning to “CCGTTCAAGTGCTTATAGGATTTAAATGGA [4867-31_148]”, the Kd (P=Nap-dU) was 0.53 nM. “CCGTTCAAGTGCTTCTAGGATTTAAATGGA [4867-31_149]”: where the note is “P=Nap-dU”, the Kd stood at 0.27 nM. Turning to “CCGTTCAAGTGCTTGTAAGATTTAAATGGA [4867-31_151]”, the Kd (P=Nap-dU) is 0.16 nM. The same measure, in the same setting: the value for “CCGTTCAAGTGCTTGTACGATTTAAATGGA [4867-31_152]” was 0.32 nM. Sequence “CCGTTCAAGTGCTTGTAGGATTTAAATGG [4867-31_143]” registered a Kd (NapdU at 4,5,10,13,14,16,21,22,23,27, rest DNA, SB18T, 37 C, Table 13 gives 0.14 nM) of 0.17 nM. Under “NapdU at P, 2'-OMe 4”, “CCGTTCAAGTGCTTGTAGGATTTAAATGG [4867-31_154]” showed a Kd of 5.9 nM. Sequence “CCGTTCAAGTGCTTGTAGGATTTAAATGG [4867-31_155]” gave a Kd (NapdU at P, 2'-OMe 5) of 3.3 nM. Consider “CCGTTCAAGTGCTTGTAGGATTTAAATGG [4867-31_156]”, for which, where the note is “NapdU at P, 2'-OMe 10”, the Kd was 0.68 nM. Regarding “CCGTTCAAGTGCTTGTAGGATTTAAATGG [4867-31_157]”, where the note is “NapdU at P, 2'-OMe 13”, the Kd is 1.5 nM.

Take “CCGTTCAAGTGCTTGTAGGATTTAAATGG [4867-31_158]”: the Kd (NapdU at P, 2'-OMe 14) was 1.7 nM. “CCGTTCAAGTGCTTGTAGGATTTAAATGG [4867-31_159]”: where the note is “NapdU at P, 2'-OMe 16”, the Kd stood at 0.56 nM. In turn, “CCGTTCAAGTGCTTGTAGGATTTAAATGG [4867-31_160]” registered a Kd (NapdU at P, 2'-OMe 21) of 1.5 nM. As for “CCGTTCAAGTGCTTGTAGGATTTAAATGG [4867-31_161]”, the Kd (2'-OMe-NapU at 22, other P are NapdU, target taken as VEGF-121) stood at 0.064 nM. For “CCGTTCAAGTGCTTGTAGGATTTAAATGG [4867-31_162]”, the Kd (2'-OMe-NapU at 23, other P are NapdU, target taken as VEGF-121) came out at 8.9 nM. As to “CCGTTCAAGTGCTTGTAGGATTTAAATGG [4867-31_163]”, for the setting “NapdU at P, 2'-OMe 27”, the Kd was 0.26 nM. Where the note is “NapdU at P, 2'-OMe 9,15,17,18,28,29 as printed”, “CCGTTCAAGTGCTTGTAGGATTTAAATGG [4867-31_191]” showed a Kd of 0.1 nM. Where the note is “as 4867-31_192, PS 3' of 1, 3' inverted dT”, “CCGTTCAAGTGCTTGTAGGATTTAAATGG [4867-31_409]” registered a Kd of 0.011 nM.

Where the note is “as 4867-31_192, PS 3' of 2, 3' inverted dT”, “CCGTTCAAGTGCTTGTAGGATTTAAATGG [4867-31_410]” had a Kd of 0.016 nM.

For the sequence “CCGTTCAAGTGCTTGTAGGATTTAAATGG [4867-31_411]”, the Kd (as 4867-31_192 plus PS 3' of G3, 3'-idT, 29259-fold loss from PS at G3) is 320 nM. Consider “CCGTTCAAGTGCTTGTAGGATTTAAATGG [4867-31_412]”, for which the Kd (as 4867-31_192, PS 3' of 4, 3' inverted dT) was determined as 0.022 nM. “CCGTTCAAGTGCTTGTAGGATTTAAATGG [4867-31_413]” displayed a Kd (as 4867-31_192, PS 3' of 5, 3' inverted dT) of 0.015 nM. In turn, “CCGTTCAAGTGCTTGTAGGATTTAAATGG [4867-31_414]” yielded a Kd (as 4867-31_192, PS 3' of 7, 3' inverted dT) of 0.015 nM. With “CCGTTCAAGTGCTTGTAGGATTTAAATGG [4867-31_415]”, for the setting “as 4867-31_192, PS 3' of 8, 3' inverted dT”, the Kd was found to be 0.011 nM. On to “CCGTTCAAGTGCTTGTAGGATTTAAATGG [4867-31_416]”, for which the dissociation constant Kd (as 4867-31_192, PS 3' of 10, 3' inverted dT) stood at 0.0093 nM.
